Measurements reported in article doi:10.1101/2023.01.10.523476 (bioRxiv, 2023).
Where two headings read alike, the source gives them in different places.

B1: GspDα secretin (E. coli K12 strain) (natural protein)
chain: ENEQYGANFNNADIRQFVEIVGQHLGKTILIDPSVQGTISVRSNDTFSQQEYYQFFLSILDLYGYSVITLDNGFLKVVRSANVKTSPGMIADSSRPGVGDELVTRIVPLENVPARDLAPLLRQMMDAGSVGNVVHYEPSNVLILTGRASTINKLIEVIKRVDVIGTEKQQIIHLEYASAEDLAEILNQLISESHGKSQMPALLSAKIVADKRTNSLIISGPEKARQRITSLLKSLDVEESEEGNTRVYYLKYAKATNLVEVLTGVSEKLKDEKGNARKPSSSGAMDNVAITADEQTNSLVITADQSVQEKLATVIARLDIRRAQVLVEAIIVEVQDGNGLNLGVQWANKNVGAQQFTNTGLPIFNAAQGVADYKKNGGITSANPAWDMFSAYNGMAAGFFNGDWGVLLTALASNNKNDILATPSIVTLDNKLASFNVGQDVPVLSGSQTTSGDNVFNTVERKTVGTKLKVTPQVNEGDAVLLEIEQEVSSVDSSSNSTLGPTFNTRTIQNAVLVKTGETVVLGGLLDDFSKEQVSKVPLLGDIPLVGQLFRYTSTERAKRNLMVFIRPTIIRDDDVYRSLSKEKYTRYRQEQQQRIDGKSKALVGSEDLPVLDENTFNSHAPAPSSR
B2: GspDβ secretin (ETEC H10407 strain) with hexahistidine tag (natural protein)
chain: EEATFTANFKDTDLKSFIETVGANLNKTIIMGPGVQGKVSIRTMTPLNERQYYQLFLNLLEAQGYAVVPMENDVLKVVKSSAAKVEPLPLVGEGSDNYAGDEMVTKVVPVRNVSVRELAPILRQMIDSAGSGNVVNYDPSNVIMLTGRASVVERLTEVIQRVDHAGNRTEEVIPLDNASASEIARVLESLTKNSGENQPATLKSQIVADERTNSVIVSGDPATRDKMRRLIRRLDSEMERSGNSQVFYLKYSKAEDLVDVLKQVSGTLTAAKEEAEGTVGSGREIVSIAASKHSNALIVTAPQDIMQSLQSVIEQLDIRRAQVHVEALIVEVAEGSNINFGVQWASKDAGLMQFANGTQIPIGTLGAAISQAKPQKGSTVISENGATTINPDTNGDLSTLAQLLSGFSGTAVGVVKGDWMALVQAVKNDSSSNVLSTPSITTLDNQEAFFMVGQDVPVLTGSTVGSNNSNPFNTVERKKVGIMLKVTPQINEGNAVQMVIEQEVSKVEGQTSLDVVFGERKLKTTVLANDGELIVLGGLMDDQAGESVAKVPLLGDIPLIGNLFKSTADKKEKRNLMVFIRPTILRDGMAADGVSQRKYNYMRAEQIYRDEQGLSLMPHTAQPVLPAQNQALPPEVRAFLNAGRTR

Tests used:
cryo-EM structure [1] = target: the molecule itself; experiment: cryo-EM structure
cryo-EM structure [2] = target: the molecule itself; experiment: cryo-EM structure; remark: listed apart in the source

| Protein | stoichiometry N (cryo-EM structure [1]) | stoichiometry N (cryo-EM structure [2]) |
| --- | --- | --- |
| B1 | 15 |  |
| B2 |  | 15 |
